Reference: paper doi:10.1101/2022.12.02.518935

Molecular target: Biotinylated AF546-labeled BtuF (BtuF*), construct of the smFRET-Q experiments (E. coli)
Test: smFRET-Q

Chain of Wild type BtuCD reconstituted in nanodiscs (P06609 whole entry): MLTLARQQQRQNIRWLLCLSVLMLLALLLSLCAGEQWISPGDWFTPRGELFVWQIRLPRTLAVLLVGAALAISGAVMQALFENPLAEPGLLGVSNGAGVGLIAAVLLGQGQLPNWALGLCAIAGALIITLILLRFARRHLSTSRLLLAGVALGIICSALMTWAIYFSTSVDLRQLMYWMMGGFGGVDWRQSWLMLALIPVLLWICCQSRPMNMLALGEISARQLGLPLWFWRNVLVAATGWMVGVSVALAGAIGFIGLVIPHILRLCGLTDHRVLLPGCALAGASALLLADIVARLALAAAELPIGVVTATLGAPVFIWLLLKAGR
Chain of Wild type BtuCD reconstituted in nanodiscs (P06611 whole entry): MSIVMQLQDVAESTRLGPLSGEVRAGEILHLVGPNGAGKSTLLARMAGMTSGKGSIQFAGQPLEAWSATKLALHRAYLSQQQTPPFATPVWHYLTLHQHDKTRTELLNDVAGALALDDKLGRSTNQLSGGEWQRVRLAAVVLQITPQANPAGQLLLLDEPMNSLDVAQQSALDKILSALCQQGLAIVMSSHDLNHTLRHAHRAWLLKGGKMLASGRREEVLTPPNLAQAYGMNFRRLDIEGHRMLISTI

“Wild type BtuCD reconstituted in nanodiscs (from UniProt P06609 1-326; P06611 1-249) (complex)” gave an occupancy time of the H state (locked BtuCD-F* complex) with 0.5 mM Mg-ATP of 1 s.
